PMC6160142, “Structural and biochemical characterization of the Cutibacterium acnes exo-β-1,4-mannosidase that targets the N-glycan core of host glycoproteins” (PLoS ONE, 2018)

What was measured:
[1] = test system: O=[N+]([O-])c1ccc(O[C@@H]2O[C@H](CO)[C@@H](O)[C@H](O)[C@@H]2O)cc1; test: purified protein; conditions: stated pHopt and Topt (pH 6.5, 60 °C; methods for pNP sugars give 50 mM sodium phosphate pH 6.0, 50 °C, 10 min); 0.5 to 20 mM substrate
[2] = target: CaMan5_18, exo-β-1,4-mannosidase (GH5 subfamily 18) from Cutibacterium acnes strain 266 (Cutibacterium acnes strain 266); test: SEC; HiLoad 16/60 Superdex 200 prep grade in 25 mM K2HPO4 pH 7.2, 150 mM NaCl, calibrated with five protein standards

| Substance | Km [1] | kcat [1] | kcat/Km [1] | stoichiometry N [2] |
| --- | --- | --- | --- | --- |
| CaMan5_18 (Cutibacterium acnes subsp. acnes) | 10.4 mM | 7.8 s⁻¹ | 750 M⁻¹ s⁻¹ | – |
| CaMan5_18, exo-β-1,4-mannosidase (GH5 subfamily 18) from Cutibacterium acnes strain 266 (enzyme) | – | – | – | 2 |
